Experiments:
UHRF1 = molecular target: T1, UHRF1 (Homo sapiens, UniProt Q96T88); experiment: microscale thermophoresis; format: binding; details: RED-NHS labelled protein, 1 µM; room temperature, 30 min
T1 sequence (Q96T88 1-793): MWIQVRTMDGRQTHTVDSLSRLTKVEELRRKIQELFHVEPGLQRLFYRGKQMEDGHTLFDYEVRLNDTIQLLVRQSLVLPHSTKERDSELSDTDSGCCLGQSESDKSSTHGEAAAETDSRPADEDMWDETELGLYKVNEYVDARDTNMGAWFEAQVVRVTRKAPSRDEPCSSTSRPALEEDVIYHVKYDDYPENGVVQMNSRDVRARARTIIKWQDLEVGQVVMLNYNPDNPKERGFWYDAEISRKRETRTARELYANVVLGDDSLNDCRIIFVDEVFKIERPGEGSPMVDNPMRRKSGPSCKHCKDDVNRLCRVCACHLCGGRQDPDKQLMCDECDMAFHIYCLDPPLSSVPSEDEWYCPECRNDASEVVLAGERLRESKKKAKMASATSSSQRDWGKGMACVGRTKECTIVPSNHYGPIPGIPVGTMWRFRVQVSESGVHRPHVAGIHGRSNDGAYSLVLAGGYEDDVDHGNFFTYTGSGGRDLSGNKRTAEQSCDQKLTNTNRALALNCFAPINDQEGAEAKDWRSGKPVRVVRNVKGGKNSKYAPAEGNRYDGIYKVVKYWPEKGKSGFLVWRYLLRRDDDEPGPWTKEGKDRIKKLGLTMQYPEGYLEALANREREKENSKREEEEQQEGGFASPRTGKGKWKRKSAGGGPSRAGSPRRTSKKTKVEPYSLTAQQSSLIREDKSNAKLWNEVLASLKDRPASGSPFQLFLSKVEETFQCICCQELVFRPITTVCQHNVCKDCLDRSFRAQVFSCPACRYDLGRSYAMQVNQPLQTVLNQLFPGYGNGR

[1] = molecular target: T2, biotinylated SFRP5 protein (secreted frizzled-related protein 5) (UniProt Q5T4F7 30-317, biotin (biotinylated; site not stated)); experiment: BLI
T2 chain: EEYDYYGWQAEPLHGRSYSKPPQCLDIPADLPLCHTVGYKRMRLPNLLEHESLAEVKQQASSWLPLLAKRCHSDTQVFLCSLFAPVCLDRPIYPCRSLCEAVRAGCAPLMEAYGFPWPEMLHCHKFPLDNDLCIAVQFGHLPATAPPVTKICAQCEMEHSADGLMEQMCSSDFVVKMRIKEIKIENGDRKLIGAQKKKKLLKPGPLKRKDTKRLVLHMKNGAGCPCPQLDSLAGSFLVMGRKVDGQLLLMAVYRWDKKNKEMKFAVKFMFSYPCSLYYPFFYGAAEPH

WNT5A protein = molecular target: T3, WNT5A protein (UniProt P41221 62-380); experiment: BLI; biotinylated SFRP5 immobilised on the biosensor (ForteBio Octet RED 96e); WNT5A in Assay Buffer at 0.156 to 5 uM; global fitting model; details: both partners purified
T3 construct: WNT5A protein
T3 sequence (looked up): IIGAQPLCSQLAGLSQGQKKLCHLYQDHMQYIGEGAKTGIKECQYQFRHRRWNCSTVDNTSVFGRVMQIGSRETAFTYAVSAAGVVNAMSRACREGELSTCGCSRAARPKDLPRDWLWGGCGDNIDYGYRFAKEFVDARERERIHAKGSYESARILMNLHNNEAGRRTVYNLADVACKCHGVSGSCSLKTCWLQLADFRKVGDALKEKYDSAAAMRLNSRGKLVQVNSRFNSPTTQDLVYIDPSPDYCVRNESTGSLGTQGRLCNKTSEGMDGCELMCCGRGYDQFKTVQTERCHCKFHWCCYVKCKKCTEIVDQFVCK

## Cc1nc(Nc2ncc(C(=O)Nc3cc(NC(=O)c4cccc(C(F)(F)F)c4)ccc3C)s2)cc(N2CCN(CCO)CC2)n1 [UM164]
UHRF1
  Kd: 10.2 µM

B1: WNT5A protein (natural protein)
chain: T3 sequence (looked up)
[1]
  Kd: 20.3 nM

B2: biotinylated SFRP5 protein (secreted frizzled-related protein 5) (natural protein, UniProt Q5T4F7 30-317, looked up)
chain: T2 chain
modifications: biotin (biotinylated; site not stated)
notes: secreted frizzled-related protein 5 (SFRP5)
WNT5A protein
  Kd: 20.3 µM
